According to patent US20260167703A1:

What was measured:
[1] = target: DENV-2 E protein Domain III (Dengue virus serotype 2, strain Thailand/16681/1984); assay: BLI, mAb on AR2G biosensor, 20 ug/mL Domain III, 1200 sec
[2] = target: DENV-4 E protein Domain III (Dengue virus serotype 4, strain Indonesia/1036/1976); assay: as above
[3] = target: Dengue Virus Serotype 2 envelope protein (Dengue virus serotype 2, strain Thailand/16681/84); assay: Luminex bead assay (antigen on MagPlex beads, MFI)
[4] = target: DENV-2 VLP (Dengue virus serotype 2, strain Thailand/16681/84); assay: Luminex, VLP-coupled beads

3H5 (antibody)
Response (nm) [1]: 0.488 nm

4G2 (antibody)
Response (nm) [1]: 0.0174 nm | Response (nm) [2]: 0.056 nm

777-2 (DV2-3H5) (antibody)
EC50 (read off the curve) [3]: 0.06 µg/mL | Response (nm) [1]: 0.303 nm | EC50 [4]: 0.0749 µg/mL
